What follows are sequences tested on Escherichia coli TOP10 (assay: shrunken log2 fold change of peptide-encoding DNA abundance (4.5 h post-induction vs induction); higher = less antimicrobial activity (less host growth inhibition)). Details: time post-induction: 4.5 h; library: site-saturation at positions 5, 18, 19, 20.
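Also: peptides expressed intracellularly from a pBAD plasmid library in pooled LB shake-flask culture, induced with 0.3% L-arabinose, DNA abundance read by NGS, three biological replicates, DESeq2 with apeglm shrinkage.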

Row | Sequence | shrunken log2 fold change
1 | RRIRTRPPRLPRPRPRPMILPRP | -0.0648
2 | RRIRTRPPRLPRPRPRPVWPPRP | 0.332
3 | RRIRHRPPRLPRPRPRPAPCPRP | 0.288
4 | RRIRKRPPRLPRPRPRPVFPPRP | 0.0527
5 | RRIRGRPPRLPRPRPRPHHCPRP | -0.118
6 | RRIRVRPPRLPRPRPRPDGAPRP | 0.413
7 | RRIRGRPPRLPRPRPRPDSMPRP | 0.245
8 | RRIRFRPPRLPRPRPRPEPLPRP | 0.0513
9 | RRIRLRPPRLPRPRPRPHKPPRP | 0.119
10 | RRIRWRPPRLPRPRPRPNDYPRP | -1.02
11 | RRIRVRPPRLPRPRPRPRPAPRP | 0.678
12 | RRIRLRPPRLPRPRPRPKIVPRP | -0.142
13 | RRIRRRPPRLPRPRPRPSLVPRP | 0.243
14 | RRIRVRPPRLPRPRPRPDKMPRP | -0.0822
15 | RRIRMRPPRLPRPRPRPLHIPRP | -0.0533
16 | RRIRSRPPRLPRPRPRPQVTPRP | -0.196
17 | RRIRQRPPRLPRPRPRPKKCPRP | -0.0485
18 | RRIRGRPPRLPRPRPRPPQPPRP | 1.03
19 | RRIRIRPPRLPRPRPRPKHSPRP | -0.447
20 | RRIRTRPPRLPRPRPRPTAIPRP | 0.0593
21 | RRIRPRPPRLPRPRPRPLARPRP | 0.388
22 | RRIRGRPPRLPRPRPRPQEMPRP | 0.0954
23 | RRIRRRPPRLPRPRPRPQCLPRP | 0.066
24 | RRIRSRPPRLPRPRPRPDRTPRP | -0.256
25 | RRIRSRPPRLPRPRPRPIGQPRP | 0.0342

Row | Sequence | shrunken log2 fold change
26 | RRIRQRPPRLPRPRPRPNESPRP | -0.0813
27 | RRIRIRPPRLPRPRPRPKNGPRP | -0.202
28 | RRIRVRPPRLPRPRPRPKWNPRP | -0.172
29 | RRIRIRPPRLPRPRPRPSTAPRP | -0.263
30 | RRIRWRPPRLPRPRPRPHEQPRP | 0.718
31 | RRIRHRPPRLPRPRPRPPRGPRP | 0.564
32 | RRIRFRPPRLPRPRPRPNEVPRP | -0.0205
33 | RRIRWRPPRLPRPRPRPGGIPRP | 0.22
34 | RRIRMRPPRLPRPRPRPWFIPRP | -0.183
35 | RRIRTRPPRLPRPRPRPVEKPRP | -0.016
36 | RRIRLRPPRLPRPRPRPMGNPRP | -0.147
37 | RRIRARPPRLPRPRPRPVQQPRP | 0.954
38 | RRIRARPPRLPRPRPRPSLEPRP | 0.455
39 | RRIRWRPPRLPRPRPRPFYCPRP | -0.151
40 | RRIRDRPPRLPRPRPRPDFTPRP | -0.0299
41 | RRIRTRPPRLPRPRPRPTRTPRP | 0.767
42 | RRIRERPPRLPRPRPRPKEAPRP | 0.324
43 | RRIRTRPPRLPRPRPRPRDMPRP | 0.161
44 | RRIRIRPPRLPRPRPRPTESPRP | -0.433
45 | RRIRYRPPRLPRPRPRPRPIPRP | -0.0521
46 | RRIRARPPRLPRPRPRPQVYPRP | -0.174
47 | RRIRQRPPRLPRPRPRPQTMPRP | 0.0333
48 | RRIRKRPPRLPRPRPRPWFYPRP | -0.0799
49 | RRIRERPPRLPRPRPRPPLTPRP | -0.0766
50 | RRIRSRPPRLPRPRPRPNTIPRP | -0.511

Row | Sequence | shrunken log2 fold change
51 | RRIRQRPPRLPRPRPRPWYSPRP | -0.0193
52 | RRIRGRPPRLPRPRPRPTSQPRP | 0.87
53 | RRIRYRPPRLPRPRPRPMLQPRP | -0.229
54 | RRIRKRPPRLPRPRPRPLSPPRP | 0.615
55 | RRIRERPPRLPRPRPRPWAPPRP | -0.0362
56 | RRIRQRPPRLPRPRPRPGFFPRP | 0.128
57 | RRIRSRPPRLPRPRPRPMIPPRP | -0.109
58 | RRIRCRPPRLPRPRPRPCWLPRP | -0.0409
59 | RRIRYRPPRLPRPRPRPCIHPRP | -0.0152
60 | RRIRARPPRLPRPRPRPCEPPRP | 0.39
61 | RRIRHRPPRLPRPRPRPIALPRP | -0.355
62 | RRIRIRPPRLPRPRPRPSSLPRP | -0.713
63 | RRIRRRPPRLPRPRPRPSYEPRP | -0.33
64 | RRIRTRPPRLPRPRPRPLWHPRP | -0.221
65 | RRIRQRPPRLPRPRPRPFSRPRP | 0.00616
66 | RRIRYRPPRLPRPRPRPFQPPRP | -0.375
67 | RRIRDRPPRLPRPRPRPMCQPRP | 0.0359
68 | RRIRMRPPRLPRPRPRPYCHPRP | -0.545
69 | RRIRLRPPRLPRPRPRPGSYPRP | 0.186
70 | RRIRKRPPRLPRPRPRPRWKPRP | 0.702
71 | RRIRHRPPRLPRPRPRPDRRPRP | -0.118
72 | RRIRWRPPRLPRPRPRPRVHPRP | 0.341
73 | RRIRARPPRLPRPRPRPHEAPRP | -0.0395
74 | RRIRIRPPRLPRPRPRPYTMPRP | -0.758
75 | RRIRIRPPRLPRPRPRPAFWPRP | 0.15

Row | Sequence | shrunken log2 fold change
76 | RRIRCRPPRLPRPRPRPDQQPRP | 0.0369
77 | RRIRCRPPRLPRPRPRPETKPRP | 0.0774
78 | RRIRLRPPRLPRPRPRPPHQPRP | 0.168
79 | RRIRNRPPRLPRPRPRPVYSPRP | -0.252
80 | RRIRHRPPRLPRPRPRPWSLPRP | -0.121
81 | RRIRVRPPRLPRPRPRPDSWPRP | -0.0688
82 | RRIRWRPPRLPRPRPRPHFNPRP | -0.333
83 | RRIRERPPRLPRPRPRPPGEPRP | 0.439
84 | RRIRKRPPRLPRPRPRPNHFPRP | -2.08
85 | RRIRWRPPRLPRPRPRPYFDPRP | -0.811
86 | RRIRVRPPRLPRPRPRPEGEPRP | 0.171
87 | RRIRSRPPRLPRPRPRPGVFPRP | 0.146
88 | RRIRARPPRLPRPRPRPMFHPRP | -0.275
89 | RRIRERPPRLPRPRPRPDENPRP | -0.0287
90 | RRIRGRPPRLPRPRPRPEKKPRP | 0.102
91 | RRIRIRPPRLPRPRPRPMVEPRP | 3.19
92 | RRIRGRPPRLPRPRPRPMPEPRP | 0.226
93 | RRIRTRPPRLPRPRPRPMFFPRP | -0.204
94 | RRIRNRPPRLPRPRPRPGLSPRP | 0.486
95 | RRIRARPPRLPRPRPRPTYHPRP | -0.225
96 | RRIRCRPPRLPRPRPRPGANPRP | 0.385
97 | RRIRGRPPRLPRPRPRPGEEPRP | 0.965
98 | RRIRQRPPRLPRPRPRPYGEPRP | -0.0137
99 | RRIRYRPPRLPRPRPRPKFYPRP | 0.0354
100 | RRIRRRPPRLPRPRPRPASQPRP | 0.0789

Row | Sequence | shrunken log2 fold change
101 | RRIRFRPPRLPRPRPRPQIQPRP | -0.42
102 | RRIRRRPPRLPRPRPRPQEFPRP | 0.041
103 | RRIRKRPPRLPRPRPRPPQYPRP | 0.277
104 | RRIRKRPPRLPRPRPRPDCQPRP | 0.00443
105 | RRIRHRPPRLPRPRPRPRTGPRP | -0.111
106 | RRIRLRPPRLPRPRPRPCCGPRP | -0.00366
107 | RRIRERPPRLPRPRPRPNVRPRP | 0.0403
108 | RRIRKRPPRLPRPRPRPQRAPRP | 0.944
109 | RRIRWRPPRLPRPRPRPHVEPRP | -0.042
110 | RRIRARPPRLPRPRPRPCPMPRP | -0.0338
111 | RRIRKRPPRLPRPRPRPCFKPRP | 0.0163
112 | RRIRKRPPRLPRPRPRPMVLPRP | -0.191
113 | RRIRWRPPRLPRPRPRPPKGPRP | 0.61
114 | RRIRPRPPRLPRPRPRPYFWPRP | -0.137
115 | RRIRLRPPRLPRPRPRPNDRPRP | -0.422
116 | RRIRPRPPRLPRPRPRPMCAPRP | 0.159
117 | RRIRYRPPRLPRPRPRPMGAPRP | -0.207
118 | RRIRYRPPRLPRPRPRPHDIPRP | -0.00174
119 | RRIRLRPPRLPRPRPRPYNKPRP | 1.41
120 | RRIRARPPRLPRPRPRPVPRPRP | 0.536
121 | RRIRNRPPRLPRPRPRPYCLPRP | -0.228
122 | RRIRKRPPRLPRPRPRPYTVPRP | -0.0362
123 | RRIRDRPPRLPRPRPRPPKCPRP | 0.0933
124 | RRIRSRPPRLPRPRPRPIHPPRP | -0.0819
125 | RRIRTRPPRLPRPRPRPTGWPRP | 0.511
